Drawing on paper PMC3561337, this text covers inhibition of fission activity (vesicle release from SUPER templates) of 0.5 µM WT dynamin-1 by increasing S45N (∼50% and inhibition of fission activity (vesicle release from SUPER templates) of 0.5 µM WT dynamin-1 by increasing Q40E (∼50% for two molecules.

This experiment addresses T1, full length WT dynamin-1 (UniProt Q05193).
T1 sequence: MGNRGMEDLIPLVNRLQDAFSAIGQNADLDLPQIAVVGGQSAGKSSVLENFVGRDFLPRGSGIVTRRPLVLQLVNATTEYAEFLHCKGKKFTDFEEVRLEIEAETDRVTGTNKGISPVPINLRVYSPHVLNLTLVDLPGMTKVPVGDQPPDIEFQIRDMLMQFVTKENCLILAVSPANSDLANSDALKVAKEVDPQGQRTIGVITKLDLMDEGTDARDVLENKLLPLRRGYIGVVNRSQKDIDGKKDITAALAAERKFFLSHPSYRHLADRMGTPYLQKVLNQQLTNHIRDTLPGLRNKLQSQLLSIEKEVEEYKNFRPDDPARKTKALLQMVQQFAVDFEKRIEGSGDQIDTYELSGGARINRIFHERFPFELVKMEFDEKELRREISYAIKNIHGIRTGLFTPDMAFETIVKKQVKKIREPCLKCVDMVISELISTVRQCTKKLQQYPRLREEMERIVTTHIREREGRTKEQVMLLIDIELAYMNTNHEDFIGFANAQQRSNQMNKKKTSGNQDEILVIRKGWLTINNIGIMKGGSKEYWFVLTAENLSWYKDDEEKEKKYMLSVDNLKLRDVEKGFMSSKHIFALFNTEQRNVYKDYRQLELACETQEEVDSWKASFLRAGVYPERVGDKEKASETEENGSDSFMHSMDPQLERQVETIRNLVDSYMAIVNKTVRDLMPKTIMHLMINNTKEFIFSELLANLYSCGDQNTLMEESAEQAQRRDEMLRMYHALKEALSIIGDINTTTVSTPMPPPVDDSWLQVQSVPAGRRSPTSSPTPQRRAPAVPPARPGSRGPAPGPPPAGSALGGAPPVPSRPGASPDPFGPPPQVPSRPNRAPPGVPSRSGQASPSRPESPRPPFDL

Numbering of substitutions follows the chain as printed. Names may count otherwise.

B1: full length S45N dynamin-1 (enzyme)
chain: T1 sequence with S45N
B1 had an inhibition of fission activity (vesicle release from SUPER templates) of 0.5 µM WT dynamin-1 by increasing S45N (∼50% at mutant:WT 0.5; value given at 1:1), 1 mM GTP, room temperature of 80%.

B2: full length Q40E dynamin-1 (enzyme)
chain: T1 sequence with Q40E
For B2, the inhibition of fission activity (vesicle release from SUPER templates) of 0.5 µM WT dynamin-1 by increasing Q40E (∼50% at mutant:WT 0.5; value given at 1:1), 1 mM GTP, room temperature was 60%.
